{
  "source": "patent US20170267756A1",
  "key": {"[1]": {"target": "anti-CD19 T-ChARM^2 with 4-1BB/CD3ζ effector domain", "test": "flow cytometry of CD19-ChARM2 T cells; gated FSC/SSC, PI-negative, CD4+; StrepTactin-APC lot 5010-1018; gate from 10^3 on the APC-A axis [Continued]"}, "[2]": {"target": "anti-CD19 CAR (short), IgG4 hinge only, 4-1BB/CD3ζ, no tag", "test": "flow cytometry of CD19(Short) CAR T cells (no tag, control); gated FSC/SSC, PI-negative, CD4+; StrepTactin-APC lot 5010-1018; gate from 10^3 on the APC-A axis [Continued]"}, "[3]": {"target": "anti-CD19 T-ChARM^3 with 4-1BB/CD3ζ effector domain", "test": "flow cytometry of CD19-ChARM3 T cells; gated FSC/SSC, PI-negative, CD4+; StrepTactin-APC lot 5010-1018; gate from 10^3 on the APC-A axis [Continued]"}, "[4]": {"target": "anti-CD19 CAR (short), IgG4 hinge only, 4-1BB/CD3ζ, no tag", "test": "flow cytometry of CD19(Short) CAR T cells (no tag, control); gated FSC/SSC, PI-negative, CD4+; StrepTactin-APC lot 5010-1015; gate from 10^3 on the APC-A axis [Continued]"}, "[5]": {"target": "anti-CD19 T-ChARM^3 with 4-1BB/CD3ζ effector domain", "test": "immunomagnetic selection on a MACS column of T-ChARM3 T cells mixed with control T cells with StrepTactin Microbeads 2#; retained fraction stained with anti-Strep tag-FITC, flow cytometry; 30.2 before enrichment [Continued]"}, "[6]": {"target": "anti-CD19 T-ChARM^3 with 4-1BB/CD3ζ effector domain", "test": "immunomagnetic selection on a MACS column of T-ChARM3 T cells mixed with control T cells with StrepTactin Nanobeads 3#; retained fraction stained with anti-Strep tag-FITC, flow cytometry; 30.2 before enrichment [Continued]"}, "[7]": {"target": "anti-CD19 T-ChARM^3 with 4-1BB/CD3ζ effector domain", "test": "flow cytometry of CD19-ChARM3 T cells; gated FSC/SSC, PI-negative, CD4+; StrepTactin-APC lot 5010-1015; gate from 10^3 on the APC-A axis [Continued]"}, "[8]": {"target": "anti-CD19 T-ChARM^3 with 4-1BB/CD3ζ effector domain", "test": "immunomagnetic selection on a MACS column of T-ChARM3 T cells mixed with control T cells with StrepTactin Microbeads 1#; retained fraction stained with anti-Strep tag-FITC, flow cytometry; 30.2 before enrichment [Continued]"}, "[9]": {"target": "anti-CD19 T-ChARM^3 with 4-1BB/CD3ζ effector domain", "test": "immunomagnetic selection on a MACS column of T-ChARM3 T cells mixed with control T cells with StrepTactin Microbeads 1#; effluent (not retained) stained with anti-Strep tag-FITC, flow cytometry; 30.2 before enrichment [Continued]"}, "[10]": {"target": "anti-CD19 T-ChARM^2 with 4-1BB/CD3ζ effector domain", "test": "flow cytometry of CD19-ChARM2 T cells; gated FSC/SSC, PI-negative, CD4+; StrepTactin-APC lot 5010-1015; gate from 10^3 on the APC-A axis [Continued]"}},
  "data": [
    {"substance": "Strep-Tactin", "values": [
      {"measurement": "percent of cells in the StrepTactin-APC (APC-A) positive gate", "setting": "[1]", "value": 93.5, "unit": "%"},
      {"measurement": "percent of cells in the StrepTactin-APC (APC-A) positive gate", "setting": "[2]", "value": 24.9, "unit": "%"},
      {"measurement": "percent of cells in the StrepTactin-APC (APC-A) positive gate", "setting": "[3]", "value": 96.5, "unit": "%"},
      {"measurement": "percent of cells in the StrepTactin-APC (APC-A) positive gate", "setting": "[4]", "value": 18.1, "unit": "%"},
      {"measurement": "percent STII (FITC-A) positive cells in the bead-retained fraction (Enrichment)", "setting": "[5]", "value": 87, "unit": "%"},
      {"measurement": "percent STII (FITC-A) positive cells in the bead-retained fraction (Enrichment)", "setting": "[6]", "value": 80.5, "unit": "%"},
      {"measurement": "percent of cells in the StrepTactin-APC (APC-A) positive gate", "setting": "[7]", "value": 94.7, "unit": "%"},
      {"measurement": "percent STII (FITC-A) positive cells in the bead-retained fraction (Enrichment)", "setting": "[8]", "value": 77.7, "unit": "%"},
      {"measurement": "percent STII (FITC-A) positive cells in the column effluent", "setting": "[9]", "value": 9.91, "unit": "%"},
      {"measurement": "percent of cells in the StrepTactin-APC (APC-A) positive gate", "setting": "[10]", "value": 92, "unit": "%"}
    ]}
  ]
}
